Experimental data from the nanobody polyreactivity screen of Harvey et al. (2022).

Assay: yeast display, Sf9 membrane polyspecificity reagent, FACS + sequencing; frameworks hold sequencing errors
Summary of the method: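 Galactose induction of a Saccharomyces cerevisiae BJ5465 synthetic nanobody display library ran 36–48 hours. The cells were then stained for 1 hour at 4 °C with 10% biotinylated, detergent-solubilized Sf9 membrane reagent, pulled down on streptavidin microbeads and FACS-sorted into low and high (top ~1%) gates on expression and reagent-binding fluorescence. Labels for polyreactivity follow the gate of origin.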

| Sequence | polyreactivity (PSR sort gate) |
| --- | --- |
| QVQLVESGGGLVQAGGSLRLSCAASGSTFANYAMGWYRQAPGKERELVAGISWRGGRTYYADSVKGRFTISRDNAKNTVYLQMNSLKPEDTAVYYCAVVHQTFTGDYWGQGTQVTVSS | high polyreactivity |
| QVQLVESGGGLVQAGGSLRLSCAASGSTFAPYVMGCYRQAPGKQRELVAAIRFNGGRTHYADSVKGRFTISRDNAKNTVYLQMNSLKPEDTAVYYCAAEQWRRRNYWGQGTQVTVSS | high polyreactivity |
| QVQLVESGGGLVQAGGSLRLSCAASGSTFAQNAMGWYRQAPGKEREFVAAITGTVGSTYYADSVKGRFTISRDNAKNTVYLQMNSLKPEDTAVYYCNTRGFNGRVYPYDYWGQGTQVTVSS | low polyreactivity |
| QVQLVESGGGLVQAGGSLRLSCAASGSTFAQNTMGWYRQAPGKERELVATISDGGGSTYYADSVKGRFTISRDIAKNTVYLQMNSLKPEDTAVYYCNTDRFWPSDYWGQGTQVTVSS | low polyreactivity |
| QVQLVESGGGLVQAGGSLRLSCAASGSTFARNAMGWYRQAPGKERDLVAAITWSGGNTYYADSVKGRFTISRDNAKNTVYLQMNSLKPEDSAVYYCNKATRHHFYYWGQGTQVTVSS | high polyreactivity |
| QVQLVESGGGLVQAGGSLRLSCAASGSTFARNAMGWYRQAPGKERELVAAITYSGGRTYYADSVKGRFTISRDNAKNTVYLQMNSLKPEDTAVYYCAADIVSSTDYPFDYWGQGTQVTVSS | low polyreactivity |
| QVQLVESGGGLVQAGGSLRLSCAASGSTFARNVMGWYRHAPGKERELVAAITRSGGSTYYADSVKGRFTISRDNAKNTVYFQMNSLKPEDTAVYYCNRDFRGLAYSDRYDYWGQGTQVTVSS | low polyreactivity |
| QVQLVESGGGLVQAGGSLRLSCAASGSTFARYAMGWYRQAPGKEREFVAAISASGGRTYYADSVKGRFTISRDNAKNTVYLQMNSLKPEDTAVYYCAVRVYAKYFAKYDYWGQGTQVTVSS | high polyreactivity |
| QVQLVESGGGLVQAGGSLRLSCAASGSTFARYAMGWYRQAPGKERELVAGISTSGGRTYYADSVKGRFTISRDNAKNTVYLQMNSLKPEDTAVYYCAKALSQTWYDGQYGYWGQGTQVTVSS | low polyreactivity |
| QVQLVESGGGLVQAGGSLRLSCAASGSTFARYVMGWYRQAPGKERELVAAIRSTGGRTYYADSVKGRFTISRDNAKNNVYVQMNSLKPEDTAVYYCAAAFGQYSRKRFDYWGQGTQVTVSS | high polyreactivity |
| QVQLVESGGGLVQAGGSLRLSCAASGSTFASNAMGWYRQAPGKDRELVADLSSGGSTYADSVKGRFTISRDNAKNTVYLQMNSLKPVDTAVYYCNNRSYGFLRGPRKTIKYYRYGYWGQGTQVTVSS | high polyreactivity |
| QVQLVESGGGLVQAGGSLRLSCAASGSTFASNAMGWYRQAPGKERELVAAITSRDASTYYADSVKGRFTISRDKEKNTVYLQMNSLKPEDTAVYYCAPVGYSPAAFDYWGQGTQVTVSS | low polyreactivity |
| QVQLVESGGGLVQAGGSLRLSCAASGSTFASNPMGGYRQAPGKERELVAAISGSGGSTYYADSVKGRFTISRDNAKNTVYLQMNSMTPEDTAVYYCNAAVAYYSYSYYTKVGVDYWGQGSQVTVSS | high polyreactivity |
| QVQLVESGGGLVQAGGSLRLSCAASGSTFASYAMGSYRQATGKETELVASITRRGGSTDYADSVKGRFTISRDNAKTTVYLQMNSLKPEDTSVYYAVETAWSYNSNYWFDYWGQGTQVTVSS | high polyreactivity |
| QVQLVESGGGLVQAGGSLRLSCAASGSTFASYAMGWDRQAPGKERELVAAITDSGGSTYYADSVKGRFTISRDNAKNTVYLQMNSLKPEDTAVYYCAAYGPYFSYHDYDYWGQGTQVTVSS | low polyreactivity |
| QVQLVESGGGLVQAGGSLRLSCAASGSTFASYAMGWNRQAPGKEREFVAAISRSGGSTYYADSVKWRFTISRDNAKNTVYLQMNSLKPEDTAVYYCAARSPSADEYYFWGQGTQVTVSS | low polyreactivity |
| QVQLVESGGGLVQAGGSLRLSCAASGSTFASYAMGWYRQAPGKERELVAAIRWRGGTTYYADSVKGRFTISRDNAKNTVYLQMNSLKPEDTAVYYCNADRYYLYYYWGQGTQVTVSS | low polyreactivity |
